Experimental data: the RNAGym collection of RNA variant scans (doi:10.1073/pnas.2313332121)

B1: TPR t1 (parent)
chain: GACCAAUCUGCCCUCAGAGCUCGAGAACAUCUUCGGAUGCAGAGGAGGCAGGCUUCGGUGGCGCGAUAGCGCCAACGUCCUCAACCUCCAAUGCAUCCCACCACAUGAUGAUGCCUGAAGAGCCUUGGUUUUUUG

Variants of: B1
Assay: polymerase ribozyme fitness, log enrichment relative to wild type (log ratio); higher = more active; in vitro selection for triplet polymerase activity
Outline: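 For each subunit of a heterodimeric triplet polymerase ribozyme, a mutant library was built by PCR and transcribed, then taken through a single in vitro selection round in triplicate. Selection involved annealing to a biotinylated primer, the partner subunit and triplets, incubation frozen at −7 °C, gel excision of extended constructs, capture on streptavidin beads and RT-PCR. Genotypes were retained after Illumina sequencing of inputs and outputs only with ≥10 input reads and ≥1 read in each output. Fitness is defined as the logarithm of a genotype's enrichment relative to wild-type enrichment, using inverse-variance-weighted averages across replicates, with the logarithm taken to base 2.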

Variant	polymerase ribozyme fitness (log ratio)
C3A U55C G61A C86U	-2
C3U A5C C15A G69C U109A U116A	-5.71
C3G C62A C82G	-3.81
A2U C15A C114U	-6.05
C3A C72A C88G U92G G127U	-2.7
C3A U9G G61C G113C	-4.85
A2U G52U C53A G63U U132C	-2.74
C3G C70U C115U G127U	-4.54
C3A A5C C13G G36A C79U A84U	-1.28
A2U U106G	-4.83
A2U U106A	-1.89
C3A G61U	-1.07
C3U A6U	0.0323
C3G G120C	-0.918
C3U A37G C49G G69A C73U	-3.7
C3G G10U G39U C72U C85U	-3.78
C3A G17U	-4.27
C3A U7A C123U	0.267
A2U U9A C11G A24U G36U C56G C123G	-7.43
C3A G51C G69U	-2.31
C3A A5U G60C A91U G127A	-2.45

Variant	polymerase ribozyme fitness (log ratio)
C3U C11U G71A A119G	-0.255
C3A A75G A111G A118G U129C	-1.7
C3U C11A G47A G110U	-3.77
C3G C82U	-1.74
C3U A66U	-1.8
A2U C40A G61U C73A U92A C104U	-5.16
A2U G71A	-2.72
C3G C11A C12A	-3.85
A2U G10U C15G U106A	-2.38
C3A U106G G113U	-6.02
C3G G39U	-2.39
C3A G42U A46U C73A U112A	-2.77
C3G G128U	-1.24
C3A C53A C73U	-1.17
C3A U7A A121G	1.21
C3A C53A G57A C70A A95C G117C	-5.27
C3A C34A	-3.91
A2U G63A	-2.23
A2U G63C	-3.13
C3A U7G U32C G93C A111C	-1.66
A2U G127C	-2.05

Variant	polymerase ribozyme fitness (log ratio)
C3G A37U C49U A100U G113A U129A	-4.75
A2U G10U G42A C88U C89G U92G C115G	-6.18
C3G G17U A50U U54A A74G A121C G135U	-4.33
C3U A46U C73A U87A	-0.663
A2U U9G A50G C62U C98A G120C	-5.94
C3A A46C C53A C72U	-1.88
A2U C70U C88A	-3.44
A2U G51U U59G A84C	-4.9
C3A A16C U78G C79U	-4.42
C3A C72U	-1.75
C3G G42U C99U C115G A121G	-5.96
C3A U38G A103C A118G C123G	-6.41
C3U A74U C101U G113A C123G	-1.18
C3U A29G A46U G61A A66U A83G C86A C101U U132A	-4.12
C3U A26U G48A U130G	-5.25
C3G G113A	-3.52
A2U C76U	-1.64
C3A A29U G61A U130C	-1.93
C3G G71U	-2.64
A2U G36C C82U G113U G135U	-5.19
C3A C102U	-2.94

Variant	polymerase ribozyme fitness (log ratio)
C3G C8A G113C G127C	-2.92
A2U G52U	-3.41
C3G C8A A37U A111G G120A U125C	-3.58
C3G G19A A29U G48C C72G U106A G110C C114G	-7.4
C3A G48A A84G	-1.29
C3U C8U A105G	-2.67
C3A C12U A29G U87C G110A A118U U131G	-0.49
C3U C11U G39C G71A A119G	-0.917
C3A U7G G10A C49G C104U G110C C124U	-4.49
C3G U59G C88U C115A	-2.65
C3U A29G G48C C73G C79G C101U	-5.51
C3G C97G	-5.54
A2U U54C U112G G113A U133A	-2.96
A2U C53G C76U U125G	-4.01
C3U A6U G48A C62U C115U	-2.86
C3A A6C U59A C62A U78G C97U G117C G135C	-6.34
C3A A41C C80U C123A	-1.77
C3U A27U G61U	-2.61
C3U A27U G61A	-3.78
C3G C88U U106C	-2.72
A2U U54A	-2.36
